Experimental data taken from patent US20220040290A1.

Molecular target: stabilized CH505 TF ch.SOSIP trimer (E64K/A316W) (HIV-1)
Assay: method not stated

“unmutated common ancestor (UCA) of the CH103 B cell lineage (antibody)” was tested, and the Kd was 0.171 µM.
